Measurements taken from the RNAGym collection of RNA variant scans (doi:10.1073/pnas.2313332121).
Fewer inactive variants are shown than the library holds.

B1: TPR 5TU (parent)
chain: GGAUCUUCUCGAUCUAACAAAAAAGACAAAUCUGCCACAAAGCUUGAGAGCAUCUUCGGAUGCAGAGGCGGCAGCCUUCGGUGGCGCGAUAGCGCCAACGUUCUCAACUAUGACACGCAAAACGCGUGCUCCGUUGAAUGGAGUUUAUCAUG

Variants of: B1
Test: polymerase ribozyme fitness, log enrichment relative to wild type (log ratio); higher = more active; in vitro selection for triplet polymerase activity
Procedure, shortened: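 Both subunits of a heterodimeric triplet polymerase ribozyme were given their own mutant library, built by PCR and transcribed. Each library was annealed with a biotinylated primer, the partner subunit and triplets, incubated frozen at −7 °C, and its extended constructs gel-excised, captured on streptavidin beads and amplified by RT-PCR, all in one round done in triplicate. Fitness is the logarithm of genotype enrichment relative to wild-type enrichment, with replicates averaged by inverse-variance weighting. That logarithm is base 2, and Illumina-sequenced genotypes needed ≥10 input reads and ≥1 read per output.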

Variant | polymerase ribozyme fitness (log ratio)
GGAUCUUCUCGAUCUAACAAAAAAGACAAAUCUGCCACAAAGCUUGAGAGCAUCUUCGGAUGCAGAGCCGGCAGCCUACGGUGGCGCGAUAGCGCCAACGUUCUCAACUAUGACACGCAAAACGCGUGCUCCGUUGAAUGGAGUUUAUCAUG | ≤ -4.2
GGAUCUUCUCGAUCUAACAAAAAAGACAAAUCUGCCACAAAGCUUGAGAGCAUCUUCGGAUGCAGAGCCGGCAGCCUUCGGUGGUGCGAUAGCGCCAACGUUCUCAACUAUGACACGCAAAACGCGUGCUCCGUUGAAUGGAGUUUAUCAUG | -3.93
GGAUCUUCUCGAUCUAACAAAAAAGACAAAUCUGCCACAAAGCUUGAGAGCAUCUUCGGAUGCAGAGACGGCAGCCUUCGGUGGCGCGAUAGCGCCAACGUUCUCAACUAUGACACGCAAAACGCGUGCUCCGUUGAACGGAGUUUAUCAUG | ≤ -4.2
GGAUCUUCUCGAUCUAACAAAAAAGACAAAUCUGCCACAAAGCUUGAGAGCAUCUUCGGAUGCAGAGCCGGCAGCCUUCGGUGGCGCGGUAGCGCCAACGUUCUCAACUAUGACACGCAGAACGCGUGCUCCGUUGAAUGGAGUUUUGCAUG | ≤ -4.2
GGAUCUUCUCGAUCUAACAAAAAAGACAAAUCUGCCACAAAGCUUGAGAGCAUCUUCGGAUGCAGAGCCGGCAGCCUUAGGUUGCGCGAUAGCGCCAACGAUCCCAAGUAUGACACGCAAAACGCGUGCUCCGUUGAAUGGGGUUUAUCAUG | ≤ -4.2
GGAUCUUCUCGAUCUAACAAAAAAGACAAAUCUGCCACAAAGCUUGAGAGCAUCUUCGGAUGCAGAGCCGGCAGCCUUCGGUGGCGCGAUAGCGCCAACGUUCUCAACUAUGACACGCAAACCGCGUGCUCCGUUGAAUGGAGUUUAUCAUG | ≤ -4.2
GGAUCUUCUCGAUCUAACAAAAAAGACAAAUCUGCCACAAAGCUUGAGAGCAUCUUCGGAUGCAGAGCCGGCAGCCUUCGGUAGCGCGAUAGCGCCAACGUUCUCAACUAUGACACGCAAAACGCGUGCUCCGUUGAAUGGAGUUUAUCAUG | ≤ -4.2
GGAUCUUCUCGAUCUAACAAAAAAGACAAAUCUGCCACAAAGCUUGAGAGCAUCUUCGGAUGCAGAGUCGGCAGCCUUAGGUGGCGCGAUAGCGCCAACGUGCUCAACUAUGACACGCGAAACGCGUGCUCCGUUGAAUGGAGUUUAUCAUG | ≤ -4.2
GGAUCUUCUCGAUCUAACAAAAAAGACAAAUCUGCCACAAAGCUUGAGAGCAUCUUCGGAUGCAGAGUCGGCAGCCUUCGGUGGCGCGAUAGCGCCAAUGUUCUCAACUAUGACACCCAAAACGCGUGCUCCGUUGAAUGGAAUUUAUCAUG | ≤ -4.2
GGAUCUUCUCGAUCUAACAAAAAAGACAAAUCUGCCACAAAGCUUGAGAGCAUCUUCGGAUGCAGAGUAGGCAGCCUUCGGUGGCGCGAUAGCGCCAACGUUCUCAACUAUGGCACACAAAACGCGUGCUCCGUUGAAUGGAGUUUAUCAUG | ≤ -4.2
GGAUCUUCUCGAUCUAACAAAAAAGACAAAUCUGCCACAAAGCUUGAGAGCAUCUUCGGAUGCAGAGCCGGCAGCCUUCGGUGGCGCGAUAGCGCCAACGUUCGGAACUAUGACACGUAAAACGCGUGCUCCCUUGAAUGGAGUUUAUCAUG | ≤ -4.2
GGAUCUUCUCGAUCUAACAAAAAAGACAAAUCUGCCACAAAGCUUGAGAGCAUCUUCGGAUGCAGAGUCGGCAGCCUUCGGUGGUGCGAUAGCGCCAACGUUCUCAACUAUGACACGCAAAACGCGUGCUCCGUUGAAUGGAGAUUAUCAUG | -4.15
GGAUCUUCUCGAUCUAACAAAAAAGACAAAUCUGCCACAAAGCUUGAGAGCAUCUUCGGAUGCAGAGUCGGCGGCUUUCGGUGGCGCGAUUGCGCCAGAGUUCUCAACUAUUACACGCAAAACGCGUGCUCCGUUGAAUGGAGUUUAUCAUG | ≤ -4.2
GGAUCUUCUCGAUCUAACAAAAAAGACAAAUCUGCCACAAAGCUUGAGAGCAUCUUCGGAUGCAGAGCCGGCAGCCUUCGGUGGCGCGAUCGCGCCAACGUUCUCUACUAUGACACGCAAAACGCGAGCUCCGUUGAAUGGAGUUUAUCAUG | ≤ -4.2
GGAUCUUCUCGAUCUAACAAAAAAGACAAAUCUGCCACAAAGCUUGAGAGCAUCUUCGGAUGCAGAGACGGCAGCCAUCGAUGGCGCGAUAGCGCCAACGUUCUCAACUAAGACACGCAAAACGCUUGCUCCGUUGAAUGGAGUUUAUCAUG | ≤ -4.2
GGAUCUUCUCGAUCUAACAAAAAAGACAAAUCUGCCACAAAGCUUGAGAGCAUCUUCGGAUGCAGAGACGGCAGCCUUCGGUGGCGCCAUAGCGCCAACGUUCUCAACUCUGACACGCAAAACGCGUGCUCCGUCGAAUGGAGUUUAUCAUG | ≤ -4.2
GGAUCUUCUCGAUCUAACAAAAAAGACAAAUCUGCCACAAAGCUUGAGAGCAUCUUCGGAUGCAGAGUCGGCAGCCUUCGGUGGGGCGAUAGCGCCAACGUUCUCAACUAUGACACGCAAAACGCGUGCUCCGUUGAAUGGAGUUUAUCAUG | ≤ -4.2
GGAUCUUCUCGAUCUAACAAAAAAGACAAAUCUGCCACAAAGCUUGAGAGCAUCUUCGGAUGCAGAGUCGGCAGCCUUCGGUGGCGCGAUAGCGCCAACGUUCUCAACUAUGACACGCAAAACGCGUGCUCCGUUGAAUGGAGUUUAUCAUG | -3.71
GGAUCUUCUCGAUCUAACAAAAAAGACAAAUCUGCCACAAAGCUUGAGAGCAUCUUCGGAUGCAGAGCCGGCAGCCUUCGGUGGCGCGAUAGCGCCAACGUUCUCAACUAUGACACGCAAAACGCGUGCUCCGUUGAAUGGAGUUUAUCAUG | -3.92

Variant | polymerase ribozyme fitness (log ratio)
GGAUCUUCUCGAUCUAACAAAAAAGACAAAUCUGCCACAAAGCUUGAGAGCAUCUUCGGAUGCAGAGUCGGCUGCCUUCGGUGGCGCGAUAGCACCAACGUUCUCAACUAUGACACGCUAAACGCGUGCUCCGUUGAAUGGAGUUUAUCAUG | ≤ -4.2
GGAUCUUCUCGAUCUAACAAAAAAGACAAAUCUGCCACAAAGCUUGAGAGCAUCUUCGGAUGCAGAGUCGGCAGACUUCGUUAGCGCGAUAGCGUUAACGUUCUCAACUAUGACAUGCAAAACGCGUGCUCCGUUGAAUGGAGUUUAUCAUG | -1.31
GGAUCUUCUCGAUCUAACAAAAAAGACAAAUCUGCCACAAAGCUUGAGAGCAUCUUCGGAUGCAGAGACGGCAGCCUUCGGUGGCAGGAUAGCGCCAACGUUCUCAACUAUGACACGCAAAACGCGUGCUCCGUUGAAUGGAGUUUAUCAUG | ≤ -4.2
GGAUCUUCUCGAUCUAACAAAAAAGACAAAUCUGCCACAAAGCUUGAGAGCAUCUUCGGAUGCAGAGUCGGCAGCCUUCGGUGGCGCGAUAGCGUUAACGUUCUCAACUAUGCCACGCAAAACUCGUGCUCCGUUGAAUGGAGUUUAUCAUG | ≤ -4.2
GGAUCUUCUCGAUCUAACAAAAAAGACAAAUCUGCCACAAAGCUUGAGAGCAUCUUCGGAUGCAGAGUCGGCAGCCUUCGGUGGCGCGAUAGCGCCAACGUUUUCAACUAUGACACGCAAAACGCGUGCUCCGUUGAAUGCAGUUUAUCAUG | ≤ -4.2
GGAUCUUCUCGAUCUAACAAAAAAGACAAAUCUGCCACAAAGCUUGAGAGCAUCUUCGGAUGCAGAGCCGGCAGCCUUCGGUUGCGCGAUAGCGCCAACGUUCUCAACUAUGACACGCAAAACGCGUGCUCCUUUGCAUGGAGUUUAUCAUG | ≤ -4.2
GGAUCUUCUCGAUCUAACAAAAAAGACAAAUCUGCCACAAAGCUUGAGAGCAUCUUCGGAUGCAGAGACGGCAGCCUUCAGUGGCUCGAGGGCGCCAACGUUCUCAACUAUGACACGCAAAACGCGUGCUCCGUUAAAUGGGGUUUAUCAUG | ≤ -4.2
GGAUCUUCUCGAUCUAACAAAAAAGACAAAUCUGCCACAAAGCUUGAGAGCAUCUUCGGAUGCAGAGUCGGCAGCCUUCGGUGGAGCGAUAGCGCCAACGUUCUCAACUGUGACACGCAAAACGCGUGCUCGGUUGGAUGCAGUUUAUCAGG | ≤ -4.2
GGAUCUUCUCGAUCUAACAAAAAAGACAAAUCUGCCACAAAGCUUGAGAGCAUCUUCGGAUGCAGAGCCGGCAGCCUCCGGUGGCGCGAUAGCGCAAGCGUUCUCAACUAUGACACGCAAAACGCGUGCUCCGUUGAAUGGAAUUUAUCAUG | ≤ -4.2
GGAUCUUCUCGAUCUAACAAAAAAGACAAAUCUGCCACAAAGCUUGAGAGCAUCUUCGGAUGCAGAGCCGGCAGCCUUCGGUGGCGCGAUAGCGCCAAGGUUCUCGACUAUGACACGCAAAACGCGUGUUCCGUUGAAUGGAGUUUAUCAUG | ≤ -4.2
GGAUCUUCUCGAUCUAACAAAAAAGACAAAUCUGCCACAAAGCUUGAGAGCAUCUUCGGAUGCAGAGUCGGCAGCCUUCGGUGGCGCGAUAGCCACAACGUUCUCAACUAUGACUCGCAAAACGCGUGCUCCGUUUAAUGGAGUUUAUCAUG | ≤ -4.2
GGAUCUUCUCGAUCUAACAAAAAAGACAAAUCUGCCACAAAGCUUGAGAGCAUCUUCGGAUGCAGAGCCGGCAGCCUUCGGUGGCGCGAUAGGGCCAACGUUCUCAACUAUGACACGCAAAACGCGUGCUCCGUUGAAUGGAGUUUAUCAUG | ≤ -4.2
GGAUCUUCUCGAUCUAACAAAAAAGACAAAUCUGCCACAAAGCUUGAGAGCAUCUUCGGAUGCAGAGCCGGCAGCCUUCGGUGGCGCUAUAGCGCCAACGUUCGCAACUAUGAUACGCAAAACGCGCGCUCCGUUGAAUGGAGUUUAUCAUG | ≤ -4.2
GGAUCUUCUCGAUCUAACAAAAAAGACAAAUCUGCCACAAAGCUUGAGAGCAUCUUCGGAUGCAGAGCCGGCAGCCUUCGGUGGCGCGAUAGCGCCAACGUUUUCAACUAUGACACGCAAAACGCGUGCUCCGUUGAAUGGAGUUUAUCAUG | ≤ -4.2
GGAUCUUCUCGAUCUAACAAAAAAGACAAAUCUGCCACAAAGCUUGAGAGCAUCUUCGGAUGCAGAGACGGCAGCCUUCGGUGGCGCGAUACCGCCAACGUUCUCAACUAUGACACGCAAAACGCGUGCUCCGUUGAAUGGAGUUUAUCAUG | -4.16
GGAUCUUCUCGAUCUAACAAAAAAGACAAAUCUGCCACAAAGCUUGAGAGCAUCUUCGGAUGCAGAGCCGGCAGCCUUCGGUGGCGCGAUAGGGCCAACGUUCUCAACUAUGACACGCAAAACGCGUGCUACGUUGAAUGGAGUUUAUCAUG | ≤ -4.2
GGAUCUUCUCGAUCUAACAAAAAAGACAAAUCUGCCACAAAGCUUGAGAGCAUCUUCGGAUGCAGAGACGGCAGCCUUCGGUGGCGCAAUAGCGCGAACGUUCUCAACUAUGACACGAAAAACGCAUGCUCCGUUGAAUGGAGUUUAUCAUG | -4.16
GGAUCUUCUCGAUCUAACAAAAAAGACAAAUCUGCCACAAAGCUUGAGAGCAUCUUCGGAUGCAGAGCCGGCAGCCUUCGGUGGGGCGAUAGCGCCAACGUUCUCAACUAUGACACGCAAAACGCGUGCUCCGUUCAAUGGAGUUUAUCAUG | ≤ -4.2
GGAUCUUCUCGAUCUAACAAAAAAGACAAAUCUGCCACAAAGCUUGAGAGCAUCUUCGGAUGCAGAGCCGGCAGCCUUCGGUGAAGCGAUAGCGCCAACGUUCUCAACUAUGACACGCAAAACGCGUGCUCCGUUGAAUGGAGUUUAUCAUG | ≤ -4.2
